Source: article PMC4108320, “Two Structurally Different Dienelactone Hydrolases (TfdEI and TfdEII) from Cupriavidus necator JMP134 Plasmid pJP4 Catalyse Cis- and Trans-Dienelactones with Similar Efficiency” (PLoS ONE, 2014)

B1: TfdEI (Cupriavidus pinatubonensis JMP134) (protein)
chain: MLSDGVEITSRSGGRFGAYLGKPTTDSAPIVVIAQEIFGITPFIRETVEWLVGAGFGCVCPDLYWRQAPNIELDANVPSEREQALALFRDFDMEAGVNDLSCAIEYARALPFSNGRVAVVGYCLGGALAFDVAARSLADCSIGYYGVGLEKKVSLVPAITRPAMFHMGTKDHYVTEEARSILEEHFGRNKNLSLHWYPVGHSFARSSSPNFDQAATTVANARTLELLAMLKDPS
notes: full-length tfdEI ORF (705 bp, 234 aa) in pET21b BamHI/HindIII; stop codon in reverse primer; E. coli BL21(DE3); about 25 kDa, monomeric
B2: TfdEII (Cupriavidus pinatubonensis JMP134) (protein)
chain: MCHDTAPALFPRTASTGSIDGAICALCYAGATRGPRLLVLPDIYGCNAFYRGYAAYLAEQGAGEVLLVDPFAAFGELATVTREAAFQRRHRLADRAYVEELIDFIDGQRIEGVVGFCLGGLFVFELARQQVVSRLVAYYPFPQGLENRDPLDVPFDYLPALRSRHTVIVGDDDALLGTQNLQRLQAQARANDAIDLHIMNGAGHGFLADLESPDTARAAVAKRGLRIGTTTLLGG
notes: full-length tfdEII ORF (708 bp, 235 aa) in pET21b BamHI/HindIII; stop codon in reverse primer; E. coli BL21(DE3); about 25 kDa, monomeric

Substrate: O=C(O)/C=C1/C=CC(=O)O1
Test: purified protein
Type: biochemical, Cupriavidus pinatubonensis
Conditions: Tris-Cl pH 7.0, 37 °C, 0.5 µM enzyme, 1-1000 µM substrate

Row | Protein | Km [µM] | Vmax [µM/min]
1 | B1 | 84 | 9.09
2 | B2 | 178 | 8.38
